The source of these data is patent US20060149521A1 (University of California, published 2006).

Positions count from the first letter of the chain named.

Assay [1] addresses GRIP1 563-767 His6 GST fusion protein (mouse) (UniProt Q61026). The experiment in a line: GST-GRIP1 (563-767) pull-down.
The target in assay [2] is GST-GRIP1 (GRIP1 amino acids 563-1121) (mouse) (UniProt Q61026). The experiment in a line: GST-GRIP1 pull-down of in vitro translated GR.
The target of assay [3] is hTRβ ligand binding domain (hTRβ LBD), in vitro translated, as used in the GST-GRIP1 binding and peptide competition assays (human) (UniProt P10828). The experiment in a line: peptide competition of hTRβ LBD binding to GST-GRIP1 (563-767) beads.
In assay [4] the target is glucocorticoid receptor (GR), full length. The experiment in a line: peptide competition of GR binding to GRIP1.
glucocorticoid receptor (GR), full length, sequence (P06536 whole entry, the tested form may be a part): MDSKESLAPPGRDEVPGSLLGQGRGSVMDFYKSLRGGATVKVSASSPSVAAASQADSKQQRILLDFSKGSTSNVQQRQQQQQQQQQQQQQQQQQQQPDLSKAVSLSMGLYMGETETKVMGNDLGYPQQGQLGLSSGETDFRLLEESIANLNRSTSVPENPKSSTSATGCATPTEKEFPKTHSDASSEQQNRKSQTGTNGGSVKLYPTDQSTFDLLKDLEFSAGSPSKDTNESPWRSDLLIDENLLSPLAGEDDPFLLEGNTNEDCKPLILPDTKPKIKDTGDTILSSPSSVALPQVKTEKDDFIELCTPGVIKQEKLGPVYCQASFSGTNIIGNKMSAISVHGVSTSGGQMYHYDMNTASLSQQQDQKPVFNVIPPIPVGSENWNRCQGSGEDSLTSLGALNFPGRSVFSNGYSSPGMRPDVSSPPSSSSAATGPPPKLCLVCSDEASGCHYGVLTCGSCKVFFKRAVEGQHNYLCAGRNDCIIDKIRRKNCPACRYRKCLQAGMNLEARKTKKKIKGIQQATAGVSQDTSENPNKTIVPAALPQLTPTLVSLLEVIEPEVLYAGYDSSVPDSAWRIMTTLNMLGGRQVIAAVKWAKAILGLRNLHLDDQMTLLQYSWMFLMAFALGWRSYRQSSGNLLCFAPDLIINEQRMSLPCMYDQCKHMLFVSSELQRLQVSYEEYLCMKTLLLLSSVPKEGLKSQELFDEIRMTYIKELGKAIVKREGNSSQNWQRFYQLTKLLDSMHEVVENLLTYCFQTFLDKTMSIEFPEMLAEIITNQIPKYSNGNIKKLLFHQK
In assay [5] the target is hTRβ ligand binding domain (hTRβ LBD), in vitro translated, as used in the GST-GRIP1 binding and peptide competition assays (human) (UniProt P10828). The experiment in a line: titration of the amount of GST-GRIP1 fragment in the pull-down of TR; assigned to the fragment with only NR-box 2 functional.
For assay [6] the target is unchanged. The experiment in a line: titration of the amount of GST-GRIP1 fragment in the pull-down of TR.
Assay [7] shares this target. The experiment in a line: peptide competition (FIG. 11c).
The target is the same in assay [8]. The experiment in a line: titration of the amount of GST-GRIP1 fragment in the pull-down of TR; assigned to the fragment with only NR-box 3 functional.
Assay [9] has the same target. The experiment in a line: GST-GRIP1 (563-767) mutant pull-down of in vitro translated TR.
The target of assay [10] is T1, hTRβ ligand binding domain (hTRβ LBD), in vitro translated, as used in the GST-GRIP1 binding and peptide … (human, UniProt P10828 202-461, limits assumed, [35S]-methionine labelled (in vitro translated)).
T1 construct: domain: LBD; also called TR LBD; TR-LBD
T1 sequence (looked up): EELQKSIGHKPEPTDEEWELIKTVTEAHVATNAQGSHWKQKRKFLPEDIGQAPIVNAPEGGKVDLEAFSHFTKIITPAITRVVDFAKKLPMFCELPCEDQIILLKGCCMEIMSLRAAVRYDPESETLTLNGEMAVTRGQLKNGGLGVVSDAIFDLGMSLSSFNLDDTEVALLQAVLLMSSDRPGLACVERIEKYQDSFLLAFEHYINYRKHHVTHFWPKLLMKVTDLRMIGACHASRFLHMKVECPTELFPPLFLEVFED
The experiment in a line: peptide competition of hTRβ LBD binding to GST-GRIP1 (563-767) beads.
Procedure: Expression was quantified by phosphoimager analysis (BAS2000, Fuji). […] Binding was performed in the binding buffer described above supplemented with 20 μg/ml BSA and appropriate hormone. […] The reaction was incubated at 4° C. under rotation for 2 hours. In case of competition experiments, the appropriate concentration of peptides were added to the reaction before addition of receptors. […] Beads were washed five times with 200 μl binding buffer+BSA at 4° C. before elution of the bound proteins in 20 μl SDS loading buffer. Eluted beads and input labeled protein were subjected to SDS-PAGE. The fraction of bound nuclear receptors was determined by phosphoimager analysis.

Assay [11] deals with T2, Human TRβ LBD (His6-E202-D461), purified, liganded with T3 (human, UniProt P10828 202-461).
T2 construct: range 202-461; Protein of the cocrystal; also called hTRβ LBD; hTR LBD
T2 sequence: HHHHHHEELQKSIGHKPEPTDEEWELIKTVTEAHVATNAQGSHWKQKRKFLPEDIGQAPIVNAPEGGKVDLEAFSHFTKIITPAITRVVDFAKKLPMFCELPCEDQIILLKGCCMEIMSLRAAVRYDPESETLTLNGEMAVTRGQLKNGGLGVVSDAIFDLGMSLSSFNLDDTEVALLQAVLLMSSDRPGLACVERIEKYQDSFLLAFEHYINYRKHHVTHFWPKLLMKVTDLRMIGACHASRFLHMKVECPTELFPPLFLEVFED
The experiment in a line: cocrystallisation and X-ray structure, 3.6 Å, T3-liganded.
Procedure: Possible rotation function solutions were calculated using normalized amplitudes in AMORE from a model of hTRβ LBD with the ligand, T₃, omitted; translation function solutions were subsequently determined using TFFC for the two rotation solutions with the highest correlation coefficients. […] After rigid body refinement of the two hTRβ LBD molecules, electron density maps were calculated.

In assay [12] the target is T3, GRIP1, full-length (mouse, UniProt Q61026 5-1462, limits assumed, [35S]-Met labelled in the pull-down assays (in vitro translated from pSG5-GRIP1)).
T3 construct: Full-length; Unlabelled, expressed from pSG5-GRIP1 in the HeLa transfections; also called [35S]-labeled full-length GRIP1; 35S-labeled GRIP1
T3 sequence (Q61026 5-1462 limits assumed): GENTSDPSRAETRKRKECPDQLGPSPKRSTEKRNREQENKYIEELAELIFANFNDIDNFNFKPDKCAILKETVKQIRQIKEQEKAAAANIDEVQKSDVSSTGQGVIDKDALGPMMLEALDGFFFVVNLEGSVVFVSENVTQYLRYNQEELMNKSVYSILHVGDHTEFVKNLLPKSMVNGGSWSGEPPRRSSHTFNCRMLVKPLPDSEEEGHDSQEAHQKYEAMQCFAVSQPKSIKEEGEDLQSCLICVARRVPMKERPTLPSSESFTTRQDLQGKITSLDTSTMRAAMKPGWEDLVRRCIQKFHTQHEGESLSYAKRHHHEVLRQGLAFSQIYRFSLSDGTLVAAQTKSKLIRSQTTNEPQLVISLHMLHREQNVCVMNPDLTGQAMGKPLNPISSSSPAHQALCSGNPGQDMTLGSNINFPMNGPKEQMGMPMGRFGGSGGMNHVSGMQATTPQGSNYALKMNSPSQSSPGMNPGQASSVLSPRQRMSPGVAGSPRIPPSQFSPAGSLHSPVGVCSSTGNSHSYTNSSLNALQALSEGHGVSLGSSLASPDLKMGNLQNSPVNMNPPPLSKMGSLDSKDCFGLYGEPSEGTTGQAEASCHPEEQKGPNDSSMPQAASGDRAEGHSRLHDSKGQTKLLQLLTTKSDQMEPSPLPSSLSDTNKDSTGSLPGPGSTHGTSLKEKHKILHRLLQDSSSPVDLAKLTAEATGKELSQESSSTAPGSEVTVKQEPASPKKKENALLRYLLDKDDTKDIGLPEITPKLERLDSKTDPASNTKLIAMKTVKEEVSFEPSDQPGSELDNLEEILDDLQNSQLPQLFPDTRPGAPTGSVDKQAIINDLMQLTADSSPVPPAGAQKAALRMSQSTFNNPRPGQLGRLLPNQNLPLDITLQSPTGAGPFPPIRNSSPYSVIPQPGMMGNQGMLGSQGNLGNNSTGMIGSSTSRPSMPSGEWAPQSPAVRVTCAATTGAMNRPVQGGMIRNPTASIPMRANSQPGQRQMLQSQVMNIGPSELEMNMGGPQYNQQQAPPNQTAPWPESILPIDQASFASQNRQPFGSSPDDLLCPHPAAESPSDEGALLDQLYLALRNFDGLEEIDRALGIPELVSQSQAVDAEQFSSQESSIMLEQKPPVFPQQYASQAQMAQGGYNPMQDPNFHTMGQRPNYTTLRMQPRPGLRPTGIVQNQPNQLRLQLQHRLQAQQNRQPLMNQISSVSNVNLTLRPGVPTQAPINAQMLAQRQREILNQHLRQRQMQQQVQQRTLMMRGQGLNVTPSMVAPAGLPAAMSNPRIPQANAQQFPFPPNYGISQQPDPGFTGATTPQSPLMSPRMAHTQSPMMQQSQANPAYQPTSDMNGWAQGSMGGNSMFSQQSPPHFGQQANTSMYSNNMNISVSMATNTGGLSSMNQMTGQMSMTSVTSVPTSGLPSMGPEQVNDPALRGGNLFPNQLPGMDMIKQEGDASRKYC
The experiment in a line: GST-hERα LBD pull-down of 35S-GRIP1, 1 µM DES.
Procedure: (§1) The wild-type and mutant GST-hERα LBDs were expressed in BL21(DE3) cells. […] Cleared extracts containing the GST-hERα LBDs were incubated in buffer alone (50 mM Tris, pH 7.4, 150 mM NaCl, 2 mM EDTA, 1 mM DTT, 0.5% NP-40 and a protease inhibitor cocktail) or with 1 μM of either DES or OHT for 1 hour at 4° C. Extract samples containing thirty pmol of GST-LBD were then incubated with 10 μl glutathioneSepharose-4B beads (Pharmacia) for 1 hour at 4° C. […] Immobilized GSThERα LBDs were incubated for 2.5 hours with 2.5 μl aliquots of crude translation reaction mixture diluted in 300 μl of Tris-buffered saline (TBS). After five washes in TBS containing 0.05% NP-40, proteins were eluted by boiling the beads for 10 minutes in sample buffer.

In assay [13] the target is T3, GRIP1, full-length. The experiment in a line: GST-hERα LBD pull-down of 35S-GRIP1, no ligand or 1 µM OHT.
Procedure: as §1
The target in a further assay is T4, hTRβ1 E457K, full-length (human, UniProt P10828 1-461, [35S]-Met labelled (in vitro translated)).
T4 construct: range 1-461
T4 sequence (looked up): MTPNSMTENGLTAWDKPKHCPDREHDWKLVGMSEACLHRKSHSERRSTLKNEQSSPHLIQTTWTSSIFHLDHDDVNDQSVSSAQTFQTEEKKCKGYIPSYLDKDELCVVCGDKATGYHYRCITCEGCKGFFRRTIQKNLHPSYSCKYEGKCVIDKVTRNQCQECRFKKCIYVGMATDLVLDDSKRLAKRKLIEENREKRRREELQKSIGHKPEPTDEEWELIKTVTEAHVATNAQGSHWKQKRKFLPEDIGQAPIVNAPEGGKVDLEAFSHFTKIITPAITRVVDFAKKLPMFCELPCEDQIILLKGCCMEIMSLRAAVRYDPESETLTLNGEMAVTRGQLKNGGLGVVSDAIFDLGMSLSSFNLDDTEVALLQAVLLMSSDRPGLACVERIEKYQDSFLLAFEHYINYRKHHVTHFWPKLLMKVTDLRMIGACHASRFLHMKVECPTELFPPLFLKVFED
The experiment in a line: GST-GRIP1 pull-down of [35S]-hTRβ1 with T3.

In a further assay the target is T5, hTRβ1 L454R, full-length (human, UniProt P10828 1-461, [35S]-Met labelled (in vitro translated)).
T5 construct: range 1-461
T5 sequence (looked up): T4 sequence (looked up) with L454R, K457E
The experiment in a line: GST-GRIP1 pull-down of [35S]-hTRβ1 with T3.

The target in assay [14] is T3, GRIP1, full-length. The experiment in a line: cell-based or functional assay.

GRIP1 563-767 His6 GST fusion protein (mouse), sequence (Q61026 other isoform, or with tags, fused parts or gaps): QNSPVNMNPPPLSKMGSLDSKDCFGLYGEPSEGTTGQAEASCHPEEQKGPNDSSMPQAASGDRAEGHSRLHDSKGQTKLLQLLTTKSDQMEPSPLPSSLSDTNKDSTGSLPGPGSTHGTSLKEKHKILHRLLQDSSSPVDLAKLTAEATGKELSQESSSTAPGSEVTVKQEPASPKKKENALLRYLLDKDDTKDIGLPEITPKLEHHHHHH

Regarding “glucocorticoid receptor (GR), full length”, in [1], the affinity as a fraction of that of TR was 0.2 fold of TR. Moreover, the fold increase of binding against GRIP1 (563-767) in assay [2] was determined as 3 fold. peptide containing GRIP1 NR-box 1 returned an EC50 in assay [3] of 130 µM. The molecule “peptide containing the VP16 binding site (FxxAL motif)” came in with a fold weaker binding than a peptide containing NR-box 3 in assay [4] of 10 fold. The molecule “peptide containing the p53 binding site (FxxLW motif)” showed a fold weaker binding than a peptide containing NR-box 3 in assay [4] of 10 fold.

“GST-GRIP1 (563-767) His6 with non-functional NR-box 3 (hydrophobic residues of NR-box 3 replaced with alanine) (from UniProt Q61026 563-767)” came in with an EC50 in [5] of 1000 nM. The molecule also came in with a fold stronger binding of TR for NR-box 2 over NR-box 3 in assay [6] of 4 fold.

Molecule “NR-box 2 peptide with the isoleucine of NR-box 2 replaced by phenylalanine” registered a fold reduction of affinity against the NR-box 2 peptide in [7] of 10 fold. In assay [8], “GST-GRIP1 (563-767) His6 with non-functional NR-box 2 (hydrophobic residues of NR-box 2 replaced with alanine) (from UniProt Q61026 563-767)” returned an EC50 of 4 µM. The molecule also displayed a loss of TR binding in [9] of 50%.

B1: GRIP1 NR-box 3 peptide ENALLRYLLDKDD (peptide)
peptide: ENALLRYLLDKDD
Take B1: the EC50 in assay [10] amounted to 4000 nM.

B2: GRIP1 NR-box 2 peptide 686-KHKILHRLLQDSS-698 (peptide)
peptide: KHKILHRLLQDSS
notes: also called GRIP1 site 2 peptide
Regarding B2, the binding result in assay [11] is recorded as “binds”.

B3: GST-hERα LBD (282-595) E542K (receptor)
chain: SAGDMRAANLWPSPLMIKRSKKNSLALSLTADQMVSALLDAEPPILYSEYDPTRPFSEASMMGLLTNLADRELVHMINWAKRVPGFVDLTLHDQVHLLECAWLEILMIGLVWRSMEHPGKLLFAPNLLLDRNQGKCVEGMVEIFDMLLATSSRFRMMNLQGEEFVCLKSIILLNSGVYTFLSSTLKSLEEKDHIHRVLDKITDTLIHLMAKAGLTLQQQHQRLAQLLLILSHIRHMSNKGMEHLYSMKCKNVVPLYDLLLKMLDAHRLHAPTSRGGASVEETDQSHLATAGSTSSHSLQKYYITGEAEGFPATV
notes: not shown: GST carrier (pGEX-3X) at the N end and its linker
As to B3, in the assay with GRIP1, full-length [12], the binding result is given as “no binding”.

B4: GST-hERα LBD (282-595) L539R (receptor)
chain: B3 chain with L258R, K261E
notes: as for B3
As to B4, in the assay with GRIP1, full-length [13], the binding result is reported as “no binding”.

B5: GST-hERα LBD (282-595) K362A (receptor)
chain: B3 chain with K81A, K261E
notes: as for B3
Consider B5, for which the binding result with GRIP1, full-length [12] was “no binding”.

B6: GST-hERα LBD (282-595) V376R (receptor)
chain: B3 chain with V95R, K261E
notes: as for B3
As to B6, in the assay with GRIP1, full-length [13], the binding result was “no binding”.

B7: GST-hERα LBD (282-595) I358R (receptor)
chain: B3 chain with I77R, K261E
notes: as for B3
On to B7, for which the binding result with GRIP1, full-length [13] is “no binding”.

B8: GST-GRIP1 (GRIP1 amino acids 721-1121) (other, mouse, UniProt Q61026 721-1121, looked up)
chain: STAPGSEVTVKQEPASPKKKENALLRYLLDKDDTKDIGLPEITPKLERLDSKTDPASNTKLIAMKTVKEEVSFEPSDQPGSELDNLEEILDDLQNSQLPQLFPDTRPGAPTGSVDKQAIINDLMQLTADSSPVPPAGAQKAALRMSQSTFNNPRPGQLGRLLPNQNLPLDITLQSPTGAGPFPPIRNSSPYSVIPQPGMMGNQGMLGSQGNLGNNSTGMIGSSTSRPSMPSGEWAPQSPAVRVTCAATTGAMNRPVQGGMIRNPTASIPMRANSQPGQRQMLQSQVMNIGPSELEMNMGGPQYNQQQAPPNQTAPWPESILPIDQASFASQNRQPFGSSPDDLLCPHPAAESPSDEGALLDQLYLALRNFDGLEEIDRALGIPELVSQSQAVDAEQFSSQE
notes: not shown: glutathione-S-transferase (GST) from the pGEX vector
Consider B8, for which the binding result with hTRβ1 E457K, full-length is given as “no binding”; in the assay with hTRβ1 L454R, full-length, “no binding”.

B9: human thyroid hormone receptor β1 (hTRβ1), full-length 461 amino acids, wild type (receptor, UniProt P10828 1-461, looked up)
chain: T4 sequence (looked up) with K457E
modifications: [35S]-Met labelled (in vitro translated)
For the molecule B9, the “T3-dependent reporter gene activity in HeLa cells” value with GRIP1, full-length [14] was 5 fold.

B10: GRIP1 NR-box 2 peptide EKHKILHRLLQDS (peptide)
peptide: EKHKILHRLLQDS
notes: also called original NR-box 2 peptide
On to B10, for which, in [10], the EC50 was 1500 nM. This lies in the single-digit micromolar range.

The EC50 is the midpoint of the concentration-response curve. The low end stands for higher potency in that assay, the high end for lower potency in that assay.
